Source: patent publication US20070286806A1, “Methods and Compositions for Modulating a Steroid Receptor” (Mount Sinai Hospital, priority 2004, published 2007)

Assays:
Assay in all cases: One-hybrid system: PR activation domains fused to Gal4 DBD, G5-Luc reporter and western blot in SHM cells
Assay type in all cases: cell-based
activation domains of PR [1] = target: T1, activation domains of PR (Homo sapiens, UniProt P06401)
T1 construct: expressed in transfected cells; host or cells: SHM (Syrian hamster myocyte) cells
T1 sequence (P06401 556-933): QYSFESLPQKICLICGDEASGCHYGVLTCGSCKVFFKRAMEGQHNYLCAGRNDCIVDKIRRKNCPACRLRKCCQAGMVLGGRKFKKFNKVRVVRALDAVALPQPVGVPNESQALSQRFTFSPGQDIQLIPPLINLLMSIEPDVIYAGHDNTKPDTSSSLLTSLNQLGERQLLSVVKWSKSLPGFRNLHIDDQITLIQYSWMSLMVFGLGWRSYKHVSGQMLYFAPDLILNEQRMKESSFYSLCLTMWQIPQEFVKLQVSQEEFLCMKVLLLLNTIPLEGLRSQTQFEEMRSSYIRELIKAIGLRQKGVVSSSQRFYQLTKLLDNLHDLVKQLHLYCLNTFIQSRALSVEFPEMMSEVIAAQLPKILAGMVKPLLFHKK
Description: (§1) FIG. 6 A-F. Inhibition of PR activation domains by PSF involves different mechanisms. Segments containing individual activation domains of PR were fused to Gal4 DNA binding domain in pM vector and cotransfected with or without increasing amounts of His-PSF, together with G5 luciferase reporter vector in SHM cells. Progesterone (10 nM) was added to cells transfected with segments containing PR hormone binding domain (HBD). Luciferase activity was measured 30 hours after transfection and normalized to β-galatosidase acitvity. Data shown are the mean of three separate experiments performed in triplicate±S.E. Whole cell lysate from each transfection was western blotted with anti-Gal4 DNA binding domain (DBD) antibody (Santa Cruz) and anti-His tag antibody H-15 (Santa Cruz). Note: the empty vector pSG5 was added to the DNA mixture to ensure that the amounts of SV40 promoter in all the transfection assays are equal.
(§2) For immunoprecipitation of the endogenous PR and PSF, T47D cells cultured in 150 mm dishes were lysed in 800 μl NETN buffer containing 150 mM NaCl plus protease inhibitor cocktail. Cell lysate were then incubated with 5 μg of PR or PSF, or control mouse IgG at 4° C. overnight, followed by the addition of 30 μl of protein A/G PLUS-agarose beads (Santa Cruz) for another two hours at 4° C. Resins were washed with NETN containing 250 mM NaCl and eluted with 1×Laemmli buffer. The eluted proteins along with the whole cell extract were western blotted by PR or PSF antibody. • GST pulldown assay: GST pulldown assay was performed as previously described (20). GST and its fusion proteins were first immobilized to glutathione-Sepharose 4B affinity matrix. The matrix was then incubated at 4° C. overnight with rabbit reticulocyte lysate (Promega) containing PR or His-PSF transcribed and translated in presence of ^35S methionine. The matrix was washed three times with cold NETN buffer before adding 1 ×Laemmli buffer to elute associated proteins. The eluted proteins were separated on 10% SDS-PAGE gel. Gels were treated with Enhancer (NEN, Boston, US) dried and analyzed by autoradiography. • Cell culture and transient transfection: SHM cells and 293T cells were maintained in DMEM plus 5% FCS (Sigma) as described before (22). For experiments involving steroid exposure, the medium was substituted with phenol red free DMEM containing 5% charcoal-treated fetal bovine serum (Hyclone, Utah, USA). Transfection was performed according to manufacturers protocol (Fementas). Cells were seeded at a density to achieve 60-80% confluency the following day. The DNA and transfection reagent were mixed and added to the medium. Cell lysates were collected at least 30 hours after transfection. For luciferase assay, cells were collected in 200 μl of lysis buffer (Promega) of which 10μl was used for the luciferase and β-Gal activity assays respectively. Luciferase activity was determined by using the luciferin reagent (Promega) according to manufacture's protocol. Transfection efficiency was normalized to β-galactosidase activity. For western blots, cell lysates were collected in NETN buffer plus protease inhibitor cocktail. About 30 μg of protein extract was separated on SDS gel electrophoresis followed by western blotting with antibodies of interest. • Electrophoretic Mobility Shift Assay: PRDBD was synthesized in rabbit reticulocyte by using the TNT coupled in vitro transcription-translation system (Promega) with the vector pcDNA3 PRDBD. Full-length PR protein extract was obtained by transiently transfecting 293T cells with Flag-PRB vector. Cells were treated with 10^−8 M progesterone and nuclear fraction was extracted by the NE-PER Nuclear and Cytoplasmic Extraction Reagents Kit (Pierce). The nuclear fraction containing PRs was confirmed by western blot with the PR antibody AB-52 and used in gel shift assay. […]

activation domains of PR [2] = target: T2, activation domains of PR (Homo sapiens, UniProt P06401); remark: listed apart in the source
T2 construct: expressed in transfected cells; host or cells: SHM (Syrian hamster myocyte) cells
T2 sequence (P06401 1-164): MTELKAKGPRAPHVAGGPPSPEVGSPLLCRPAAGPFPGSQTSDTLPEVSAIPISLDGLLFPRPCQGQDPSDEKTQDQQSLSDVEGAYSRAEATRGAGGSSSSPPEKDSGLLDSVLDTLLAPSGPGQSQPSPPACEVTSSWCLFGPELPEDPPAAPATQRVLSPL
Description: as §1, §2

activation domains of PR [3] = target: T3, activation domains of PR (Homo sapiens, UniProt P06401); remark: listed apart in the source
T3 construct: expressed in transfected cells; host or cells: SHM (Syrian hamster myocyte) cells
T3 sequence (P06401 456-650): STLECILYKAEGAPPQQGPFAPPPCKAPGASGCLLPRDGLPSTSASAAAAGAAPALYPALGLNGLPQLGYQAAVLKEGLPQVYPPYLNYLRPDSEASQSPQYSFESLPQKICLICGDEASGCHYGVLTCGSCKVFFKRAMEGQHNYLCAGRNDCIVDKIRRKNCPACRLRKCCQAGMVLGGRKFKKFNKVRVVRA
Description: as §1, §2

activation domains of PR [4] = target: T4, activation domains of PR (Homo sapiens, UniProt P06401); conditions: PR456-556 (AF1 domain)
T4 construct: expressed in transfected cells; host or cells: SHM (Syrian hamster myocyte) cells
T4 sequence (P06401 456-556): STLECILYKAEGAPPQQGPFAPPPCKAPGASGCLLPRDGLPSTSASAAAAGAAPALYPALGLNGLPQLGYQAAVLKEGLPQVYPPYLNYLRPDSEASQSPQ
Description: as §1, §2

activation domains of PR [5] = target: T5, activation domains of PR (Homo sapiens, UniProt P06401); conditions: PR650-933 (only the AF2 domain)
T5 construct: expressed in transfected cells; host or cells: SHM (Syrian hamster myocyte) cells
T5 sequence (P06401 650-933): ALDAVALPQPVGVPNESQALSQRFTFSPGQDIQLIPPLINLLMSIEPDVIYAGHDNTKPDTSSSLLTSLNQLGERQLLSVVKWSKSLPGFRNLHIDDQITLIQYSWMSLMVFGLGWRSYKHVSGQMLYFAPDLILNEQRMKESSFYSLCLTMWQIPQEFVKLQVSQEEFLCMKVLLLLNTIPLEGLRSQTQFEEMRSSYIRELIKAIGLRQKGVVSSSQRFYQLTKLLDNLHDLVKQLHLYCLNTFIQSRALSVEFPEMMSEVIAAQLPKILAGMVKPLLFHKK
Description: as §1, §2

B1: polypyrimidine tract binding protein-associated splicing factor (protein)
chain: MSRDRFRSRGGGGGGFHRRGGGGGRGGLHDFRSPPPGMGLNQNRGPMGPGPGQSGPKPPIPPPPPHQQQQQPPPQQPPPQQPPPHQPPPHPQPHQQQQPPPPPQDSSKPVVAQGPGPAPGVGSAPPASSSAPPATPPTSGAPPGSGPGPTPTPPPAVTSAPPGAPPPTPPSSGVPTTPPQAGGPPPPPAAVPGPGPGPKQGPGPGGPKGGKMPGGPKPGGGPGLSTPGGHPKPPHRGGGEPRGGRQHHPPYHQQHHQGPPPGGPGGRSEEKISDSEGFKANLSLLRRPGEKTYTQRCRLFVGNLPADITEDEFKRLFAKYGEPGEVFINKGKGFGFIKLESRALAEIAKAELDDTPMRGRQLRVRFATHAAALSVRNLSPYVSNELLEEAFSQFGPIERAVVIVDDRGRSTGKGIVEFASKPAARKAFERCSEGVFLLTTTPRPVIVEPLEQLDDEDGLPEKLAQKNPMYQKERETPPRFAQHGTFEYEYSQRWKSLDEMEKQQREQVEKNMKDAKDKLESEMEDAYHEHQANLLRQDLMRRQEELRRMEELHNQEMQKRKEMQLRQEEERRRREEEMMIRQREMEEQMRRQREESYSRMGYMDPRERDMRMGGGGAMNMGDPYGSGGQKFPPLGGGGGIGYEANPGVPPATMSGSMMGSDMRTERFGQGGAGPVGGQGPRGMGPGTPAGYGRGREEYEGPNKKPRF
notes: expressed from transfected His-PSF vector or in vitro translated
Activation domains of PR [1]; PR556-933 (DBD and AF2 domain), 10 nM progesterone
  transactivation of PR556-933: did inhibit transactivation
Activation domains of PR [1]; PR556-933, western blot
  protein level of PR556-933: without any reduction
Activation domains of PR [2]; PR1-164 (AF3), increasing amounts of PSF
  luciferase activity of pM PR1-164: significant dose-dependent reduction in luciferase activity
Activation domains of PR [2]; PR1-164, western blot
  pM PR1-164 protein: loss of pM PR1-164 protein
Activation domains of PR [3]; PR456-650 (AF1 domain and DBD)
  transactivation of PR456-650: inhibited transactivation
Activation domains of PR [3]; PR456-650, western blot
  protein of PR456-650: enhanced degradation
Activation domains of PR [4]
  effect on PR456-556: no effect
Activation domains of PR [5]
  effect on PR650-933: no effect
